Results reported in patent US20100325744A1.

Tests used:
[1] = biological target: 2F8-HG (human); experiment: self-association of HG half-molecules; non-covalent nano-electrospray mass spectrometry
[2] = biological target: 2F8-HG (human); experiment: self-association; non-covalent nano-electrospray mass spectrometry at 0.01-10 µM

In the case of 2F8-HG (antibody), the percentage molecules present as monomers [1] is reported as 15% and the percentage monomeric at low concentrations [2] is reported as 100%.
